Results: article PMC3316703

Experiments:
[1] = molecular target: Thy-1 on CAD cells (mouse (endogenous in CAD cells)) (UniProt P01831)
[2] = molecular target: Thy-1 on the surface of primary rat cortical neurons (rat (endogenous in primary cortical neurons)) (UniProt P01830)
[3] = molecular target: Thy-1 on the surface of primary rat cortical neurons (rat (endogenous in primary cortical neurons)) (UniProt P01830); remark: listed apart in the source
[4] = molecular target: Thy-1 on the surface of primary rat cortical neurons (rat (endogenous in primary cortical neurons)) (UniProt P01830); remark: listed apart in the source
[5] = molecular target: αVβ3 integrin on the cell surface of DITNC1 astrocytes (UniProt Q8R2H2)
UniProt Q8R2H2, sequence (Q8R2H2 whole entry, looked up): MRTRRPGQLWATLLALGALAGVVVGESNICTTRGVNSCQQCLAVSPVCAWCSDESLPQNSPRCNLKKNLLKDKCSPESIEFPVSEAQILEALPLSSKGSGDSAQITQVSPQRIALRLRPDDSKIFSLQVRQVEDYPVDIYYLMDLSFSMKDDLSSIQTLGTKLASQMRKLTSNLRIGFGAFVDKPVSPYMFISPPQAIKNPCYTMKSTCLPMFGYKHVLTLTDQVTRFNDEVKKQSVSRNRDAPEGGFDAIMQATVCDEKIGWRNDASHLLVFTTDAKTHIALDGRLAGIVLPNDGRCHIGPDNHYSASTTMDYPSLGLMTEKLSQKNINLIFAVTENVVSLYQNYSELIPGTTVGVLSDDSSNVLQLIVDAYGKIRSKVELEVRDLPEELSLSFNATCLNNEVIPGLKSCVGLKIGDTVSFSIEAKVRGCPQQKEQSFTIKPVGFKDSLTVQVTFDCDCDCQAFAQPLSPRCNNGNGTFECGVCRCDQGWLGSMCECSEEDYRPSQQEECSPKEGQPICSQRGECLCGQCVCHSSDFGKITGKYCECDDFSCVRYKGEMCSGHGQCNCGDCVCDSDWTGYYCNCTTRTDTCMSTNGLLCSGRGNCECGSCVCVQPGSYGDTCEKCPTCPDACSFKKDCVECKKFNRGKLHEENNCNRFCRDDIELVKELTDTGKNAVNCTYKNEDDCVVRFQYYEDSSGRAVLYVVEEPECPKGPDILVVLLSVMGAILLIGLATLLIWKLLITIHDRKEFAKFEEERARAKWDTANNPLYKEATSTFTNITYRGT

UniProt P01830, sequence (P01830 20-130): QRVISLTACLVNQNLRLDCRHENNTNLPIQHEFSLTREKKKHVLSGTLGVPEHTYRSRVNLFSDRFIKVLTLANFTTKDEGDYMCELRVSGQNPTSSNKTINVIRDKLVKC

Row | Molecule | length of processes of CAD cells on αVβ3-Fc-coated plates in comparison to controls [1] [% decrease] | length of dendrites of cortical neurons (4–5 days in culture) treated with αVβ3-Fc-containing supernatant for 72 hours, compared with non-treated neurons; prevented by PI-PLC pre-treatment [2] [% decrease] | percentage of axonal terminals collapsed in mature cortical neurons treated with αVβ3-Fc cross-linked with Protein A [3] [%] | percentage of Thy-1 positive axonal terminals collapsed in mature cortical neurons (12–15 days in vitro) treated with αVβ3-Fc-containing supernatants [4] [%] | percentage of differentiated CAD cells (processes ≥15 µm) seeded over a monolayer of DITNC1 astrocytes, against ∼80% on plastic [5] [%]
1 | αVβ3-Fc fusion protein (from UniProt P06756 31-1048; P05106 27-718) | 40 | 50 | 80 | 55 | –
2 | Thy-1 on CAD cells (natural protein, GPI anchor) QKVTSLTACLVNQNLRLDCRHENNTKDNSIQHEFSLTREKRKHVLSGTLGIPEHTYRSRVTLSNQPYIKVLTLANFTTKDEGDYFCELQVSGANPMSSNKSISVYRDKLVKC | – | – | – | – | 35
